# Values of other authors, collected in PMC10999626.
# Target: FcRn (Mus musculus) (UniProt Q61559)
# Test: BLI
# Sequence of human IgG4 (P01861 whole entry): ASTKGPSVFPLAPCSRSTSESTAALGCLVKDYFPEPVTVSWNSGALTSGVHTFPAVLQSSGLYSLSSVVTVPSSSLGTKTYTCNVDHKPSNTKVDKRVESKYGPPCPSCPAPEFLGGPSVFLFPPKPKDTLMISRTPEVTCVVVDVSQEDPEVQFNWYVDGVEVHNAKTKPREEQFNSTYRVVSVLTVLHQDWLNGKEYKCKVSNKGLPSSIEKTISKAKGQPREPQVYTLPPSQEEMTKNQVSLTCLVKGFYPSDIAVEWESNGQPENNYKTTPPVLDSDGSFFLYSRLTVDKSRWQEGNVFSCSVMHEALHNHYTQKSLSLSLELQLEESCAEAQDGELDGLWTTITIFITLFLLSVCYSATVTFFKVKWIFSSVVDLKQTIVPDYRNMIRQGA
# Sequence of FcRn (Mus musculus) (Q61559 22-365): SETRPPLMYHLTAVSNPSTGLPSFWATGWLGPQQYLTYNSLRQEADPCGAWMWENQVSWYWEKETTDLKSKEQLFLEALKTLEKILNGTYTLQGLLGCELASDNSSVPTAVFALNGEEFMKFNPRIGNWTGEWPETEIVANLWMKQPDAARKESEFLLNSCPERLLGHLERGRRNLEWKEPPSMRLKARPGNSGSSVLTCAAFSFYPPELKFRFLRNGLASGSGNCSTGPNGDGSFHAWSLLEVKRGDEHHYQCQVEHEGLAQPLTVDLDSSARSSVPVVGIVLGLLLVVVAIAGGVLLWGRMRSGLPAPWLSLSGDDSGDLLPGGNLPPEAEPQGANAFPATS
substance,measurement,value
human IgG4 (from UniProt P01861),Kd,6 nM
